Test results reported in paper PMC3059903 (EMBO Reports, 2011).

Biological target: laminin β1 LN–LEa1–4 fragment (mouse, UniProt P02469 22-509)
Assay: SPR

Chain of laminin β1 LN–LEa1–4 fragment (P02469 22-509): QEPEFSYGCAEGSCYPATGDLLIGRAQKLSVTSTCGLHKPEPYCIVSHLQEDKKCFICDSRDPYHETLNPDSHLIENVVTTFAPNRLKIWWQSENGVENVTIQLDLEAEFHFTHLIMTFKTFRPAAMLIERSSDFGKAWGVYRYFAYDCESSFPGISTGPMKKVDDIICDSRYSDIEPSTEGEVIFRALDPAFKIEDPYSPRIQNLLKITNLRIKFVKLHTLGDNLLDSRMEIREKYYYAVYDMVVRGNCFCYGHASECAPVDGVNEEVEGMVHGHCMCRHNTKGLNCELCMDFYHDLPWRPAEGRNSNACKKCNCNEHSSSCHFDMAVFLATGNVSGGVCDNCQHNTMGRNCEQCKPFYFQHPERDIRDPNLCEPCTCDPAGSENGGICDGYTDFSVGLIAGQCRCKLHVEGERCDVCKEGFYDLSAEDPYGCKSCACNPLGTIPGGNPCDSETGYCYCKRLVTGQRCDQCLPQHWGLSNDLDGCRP

Kd: ≥ 5 µM
B1: laminin γ1 LN–LEa1–4 fragment (domain or fragment, mouse, UniProt P02468 34-492, looked up)
chain: AMDECADEGGRPQRCMPEFVNAAFNVTVVATNTCGTPPEEYCVQTGVTGVTKSCHLCDAGQQHLQHGAAFLTDYNNQADTTWWQSQTMLAGVQYPNSINLTLHLGKAFDITYVRLKFHTSRPESFAIYKRTREDGPWIPYQYYSGSCENTYSKANRGFIRTGGDEQQALCTDEFSDISPLTGGNVAFSTLEGRPSAYNFDNSPVLQEWVTATDIRVTLNRLNTFGDEVFNEPKVLKSYYYAISDFAVGGRCKCNGHASECVKNEFDKLMCNCKHNTYGVDCEKCLPFFNDRPWRRATAESASESLPCDCNGRSQECYFDPELYRSTGHGGHCTNCRDNTDGAKCERCRENFFRLGNTEACSPCHCSPVGSLSTQCDSYGRCSCKPGVMGDKCDRCQPGFHSLTEAGCRPCSCDLRGSTDECNVETGRCVCKDNVEGFNCERCKPGFFNLESSNPKGCTP
